Measured values as given in patent publication US20020123082A1 (NEW YORK UNIVERSITY, published 2002).
Non-standard residues stand in square brackets, D forms with d. No end group written: not given here. pY = N[C@@H](Cc1ccc(OP(=O)(O)O)cc1)C(=O)O

Key:
Experiment in all cases: HeLa cell extract on peptide beads, RIPA wash, immunoblot
[1] = molecular target: human Skp1 (endogenous, HeLa cells) (human, UniProt P63208 2-163)
Protocol: (§1) Beads were washed with RIPA buffer and bound proteins were immunoblotted with antibodies to the proteins indicated on the left of each panel. A portion of the HeLa extract (25 μg) was used as a control (lane 4). […] C. […] Beads were washed with RIPA buffer and bound proteins subjected to electrophoresis and autoradiography.
(§2) Proteins stably associated with the beads were examined by immunoblotting.

human Cul1 (endogenous) = molecular target: T1, human Cul1 (endogenous) (human, UniProt Q13616 1-776)
T1 construct: A slower migrating form is said to be likely modified by a ubiquitin-like molecule
T1 sequence (Q13616 whole entry): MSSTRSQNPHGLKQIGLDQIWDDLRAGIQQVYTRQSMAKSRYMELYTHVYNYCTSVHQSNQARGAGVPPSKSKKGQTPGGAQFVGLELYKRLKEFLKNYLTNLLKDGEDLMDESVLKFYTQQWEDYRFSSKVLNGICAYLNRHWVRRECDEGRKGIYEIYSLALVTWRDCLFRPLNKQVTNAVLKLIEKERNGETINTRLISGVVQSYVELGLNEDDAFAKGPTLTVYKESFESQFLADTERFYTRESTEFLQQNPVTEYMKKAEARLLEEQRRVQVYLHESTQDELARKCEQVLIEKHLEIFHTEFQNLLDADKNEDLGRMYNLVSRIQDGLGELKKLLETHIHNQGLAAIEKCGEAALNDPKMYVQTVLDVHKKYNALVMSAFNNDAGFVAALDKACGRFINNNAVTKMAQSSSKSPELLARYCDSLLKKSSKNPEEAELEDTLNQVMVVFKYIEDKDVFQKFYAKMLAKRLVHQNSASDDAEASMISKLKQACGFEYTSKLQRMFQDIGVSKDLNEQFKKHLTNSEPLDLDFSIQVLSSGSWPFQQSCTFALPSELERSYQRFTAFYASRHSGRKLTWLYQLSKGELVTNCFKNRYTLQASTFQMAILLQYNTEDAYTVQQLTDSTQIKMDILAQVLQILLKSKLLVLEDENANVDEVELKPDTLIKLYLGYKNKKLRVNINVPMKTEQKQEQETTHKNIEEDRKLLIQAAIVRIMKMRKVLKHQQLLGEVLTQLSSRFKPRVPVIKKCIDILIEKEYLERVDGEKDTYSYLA
Protocol: as §1, §2

human F-box protein Skp2 = molecular target: T2, human F-box protein Skp2 (human, UniProt Q13309 1-424)
T2 construct: Used as in vitro translated 35S-Skp2, as endogenous protein of HeLa and IMR90 extracts and as untagged baculovirus protein; also called S-phase kinase-associated protein 2
T2 sequence (Q13309 whole entry): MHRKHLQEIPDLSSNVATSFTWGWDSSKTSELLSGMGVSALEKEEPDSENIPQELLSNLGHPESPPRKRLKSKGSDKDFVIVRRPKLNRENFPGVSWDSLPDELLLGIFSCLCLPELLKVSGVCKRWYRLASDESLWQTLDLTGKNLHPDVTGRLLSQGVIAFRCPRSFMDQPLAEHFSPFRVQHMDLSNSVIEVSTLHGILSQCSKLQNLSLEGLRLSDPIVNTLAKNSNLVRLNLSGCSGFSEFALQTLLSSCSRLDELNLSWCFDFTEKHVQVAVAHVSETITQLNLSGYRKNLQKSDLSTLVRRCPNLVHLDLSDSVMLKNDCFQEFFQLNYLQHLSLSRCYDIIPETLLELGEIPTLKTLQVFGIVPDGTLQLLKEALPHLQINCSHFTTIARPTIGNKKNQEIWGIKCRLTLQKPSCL
Protocol: as §1, §2

Measured: binding result

human Skp1 (endogenous, HeLa cells), sequence (P63208 2-163 limits assumed): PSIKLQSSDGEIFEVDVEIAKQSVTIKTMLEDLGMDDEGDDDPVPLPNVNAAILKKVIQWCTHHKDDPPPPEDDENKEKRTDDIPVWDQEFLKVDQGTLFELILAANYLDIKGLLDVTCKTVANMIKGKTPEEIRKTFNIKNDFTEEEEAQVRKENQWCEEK

B1: control phospho-peptide AEIGVGAY*GTVYKARDPHS of human Cdk4 (peptide)
peptide: AEIGVGA[pY]GTVYKARDPHS
notes: Coupled to beads; also called unrelated phospho-peptide
no binding: all assays above
